Data as given in the DeepSol protein solubility set.

Test: soluble on expression in E. coli; label from the status in PepcDB or PDB records

Which “soluble on expression in E. coli” value does the source give for “MTTFPILRLPEKSLKIAIRCLTMEQIIKFSLISESTKRTAESLNLQADPFWICFGESVHISVHANFVENYQQDIPWNPVEVDLRTLLDHFQSVLHTNKFEYFFV” here?
The value was “not soluble”.

Which “soluble on expression in E. coli” value does the source give for “MTTGVRRRMGVEERRQQLIGVALDLFSRRSPDEVSIDEIASAAGISRPLVYHYFPGKLSLYEAALQRASDDLADRFVEPRQGPLGARLLRVMGRYFDFVDEHGPGFSALMRGGPAVGSTTTNALVDSVRQAAYVQILSHLDVTEPPARLELVVRSWISLAESTALLWLDGRRIPRAELETQLVHDFAALMAVSAAYDEEMGALVRRVLADEPEDGPFGDLVDRLLALSAR” here?
The value was “soluble”.

With “MTTIKLIVNSVSKSERESIIAALHGQSIFNGGGLSPLNKISPSHPPKPATVAVPEETEKKARDVNEKTALLKKKSATELGELATSINTIARDAHMEANLEMEIVPQGLRVLIKDDQNRNMFERGSAQIMPFFKTLLVELAPVFDSLDNKIIITGHTDAMAYKNNIYNNWNLSGDRALSARRVLEEAGMPEDKVMQVSAMADQMLLDAKNPQSAGNRRIEIMVLTKSASDTLYQYFGQHGDKVVQPLVQKLDKQQVLSQRTR” as the sequence, how does the “soluble on expression in E. coli” value read?
Its value is “not soluble”.

Which “soluble on expression in E. coli” value does the source give for “MTTKHSRTPGRPRQFDPEQAIETAQHLFHSRGYDAVSVADLTKAFGINPPSFYAAFGSKLGLYTRVLKRYRMTDAIPLGALLRHDRPTAKCLIDVLMEAARRYAADPDATGCLVLEGAHCNDKPAREAACEFYIAAENLIRTYVAMRYPQEADRTTDFMGTLMAGLSAKARAGYGLERLQESVLLAGDVLERLLPD” here?
Its value is “not soluble”.

Which “soluble on expression in E. coli” value does the source give for “MTTMTIKNAMVLAAGLGTRMRPITDTIPKPLVKIAGKPMIDYALDALVEAGAETIVVNVHHHAEQMISHLGHRTDAEILISDERTQLMNSGGGLAKGLKLLKPGPVFVMNADLFWIGERLNAVSNLRKLAQFLDPARMDMALLCVDMDRTTGHNGKRDFNLAGEGKLTRYRDGDANPVVYAGAIAMDSRLLDDAPADAFNLNIYFDRAIEKDRLFGLSLDGHWITVGTPDAIDDAESIIRQFREKRFALEHHHHHH” here?
Its value is “not soluble”.

For “MTTNKPLISVIMPVYNGGFTIRQAVESVFCQNIPLELLVIDDGSTDQTSEVLSVYRNRPDFHYLKNPHNIGAAASRNRGVQEAHGQYVAFLDADDWWENGKLQIQLDTLHETGRVLCSTGRELMNYDGTPTGKYIPVKETVSYRDLLKHNSINCSSVLLLRDVAAEFPMEHDDSHEDYLTWLKILRKYGPAAGIDRPLLKYRMSKTSKSGDKKKSAIMTYKVYRYMGYSHMRCILYFISYAIHGFWKYR”, which “soluble on expression in E. coli” value is on record?
Its value is “not soluble”.

For “MTTPKTFVPELLSPAGSLKNMRYAFAYGADAVYAGQPRYSLRVRNNEFNHENLQIGINEAHALGKKFYVVCNIQPHNSKLKTFIRDLKPVIDMGPDALIMSDPGLIMMVREEFPHMPIHLSVQANAVNWATVKFWASQGVERVIVSRELSLEEIEEIREKCPNTEIEVFVHGALCMAYSGRCLLSGYINKRDPNQGTCTNACRWEYKVEAAKEDEAGQIVEQFDPNAAQAIEVQNERPDTTIGAGKPIDDVVLLSESHRPDEKMAAFEDEHGTYIMNSKDLRAVQHVERLTQMGVHSLKIEGRTKSFYYCARTAQVYRKAIDDAVAGKPFDDSLMTTLESLAHRGYTEGFLRRHTHDAYQNYDYGYSVSDTQQFVGEFTGKRRGAMAEVEVKNKFVLGDSLELMTPKGNVIFTLEAMENRKGEATDDAKGNGHFVYIPVPEELDLSYALLMRNLVQGQDTRNPTGK”, which “soluble on expression in E. coli” value is on record?
The value was “not soluble”.

With “MTTQTIKFHMKPETFKQNAAISLQDKPLRKSLRTAMDMLMTKRKAVLTDEEELQSLRDLCEHVRQRSLSKLPALLEQLEENLTKLGVKVHWAETPTEACQIIHDIITAKNGKLMVKGKSMVSEEIELNHYLEAKGIKAVESDLGEFIVQMAGEKPTHIVMPAIHKTKEQVSELFHQNLGTPLTDDVDQLTGFARKALRDIYSTADVGLSGVNFAVAETGTLCLVENEGNGRLSTTVPPVHIAITGIEKVVAKLSDIPPLYSLLPRSAIGQNITTYFNMITGPRRSEELDGPQEMHLVLLDNGRSQAYAEDQMRRTLQCIRCGACMNHCPVYTRIGGAAYGTTYPGPIGEIISPHLLGLDATRDLPTACTMCGACVEVCPVRIPITEQMQRLRVEAQRSPTETVPHPIRGQGASHTFGEQMAWRTFNGIFSGSKTYRAFGWAATKFRNLTPRKQLGWTQNRVPMKPAKKTLHELMAEKMRQKEQA” as the sequence, how does the “soluble on expression in E. coli” value read?
The value was “not soluble”.

With “MTTSGHACPVPAVNGHMTHYPATPYPLLFPPVIGGLSLPPLHGLHGHPPPSGCSTPSPATIETQSTSSEELVPSPPSPLPPPRVYKPCFVCQDKSSGYHYGVSACEGCKGFFRRSIQKNMIYTCHRDKNCVINKVTRNRCQYCRLQKCFEVGMSKESVRNDRNKKKKETSKQECTESYEMTAELDDLTEKIRKAHQETFPSLCQLGKYTTNSSADHRVRLDLGLWDKFSELATKCIIKIVEFAKRLPGFTGLTIADQITLLKAACLDILILRICTRYTPEQDTMTFSDGLTLNRTQMHNAGFGPLTDLVFTFANQLLPLEMDDTETGLLSAICLICGDRQDLEEPTKVDKLQEPLLEALKIYIRKRRPSKPHMFPKILMKITDLRSISAKGAERVITLKMEIPGSMPPLIQEMLENSEGHEPLTPSSSGNTAEHSPSISPSSVENSGVSQSPLVQ” as the sequence, how does the “soluble on expression in E. coli” value read?
Its value is “soluble”.

Which “soluble on expression in E. coli” value does the source give for “MTVANWQVRDLTLILRTGEMQSRLEQARTDFGALLPETVYFQPSAIRLGEFDDEYILTRQELVYVYLREDIARQCALRRHLPSNSSNSGIMATAIPPWLMDARRLNRVMQERCDQGGLVHYYQGPHTNQFFLAIMPSNCFVRFGTDVINNENYGFYARGGNYTEEGEDDDDEMDDEDETGGAETRDSQTGNLINYPIIALGSCHLSALEHHHHHH” here?
Its value is “not soluble”.

For “MTVKIALLGFGTVASGVPFLLKENGGKINQSAHSDIKVAKVLVKDEDEKNRLLAAGNDFNFVTNVDDILSDQDITIVVELMGRIEPAKTFITRALEAGKHVVTANKDLLAVHGAELLEIAQANKVALYYEAAVAGGIPILRTLANSLASDKITRVLGVVNGTSNFMVTKMVEEGWSYDDALAEAQRLGFAESDPTNDVDGIDAAYKMVILSQFAFGMKIAFDDVAHKGIRNITPEDVAVAQELGYVVKLVGSIEETSSGIAAEVTPTFLPKAHPLASVNGVMNAVFVESIGIGESMYYGPGAGQKPTATSVVADIVRIVRRLNDGTIGKDFNEYSRDLVLANPEDVKANYYFSILALDSKGQVLKLAEIFNAQDISFKQILQDGKEGDKARVVIITHKINKAQLENVSAELKKVSEFDLLNTFKVLGE”, which “soluble on expression in E. coli” value is on record?
Its value is “soluble”.

For “MTVLMRLVASAYSIAQKAGMIVRRVIAEGDLGIVEKTCATDLQTKADRLAQMSICSSLARKFPKLTIIGEEDLPSEEVDQELIEDSQWEEILKQPCPSQYSAIKEEDLVVWVDPLDGTKEYTEGLLDNVTVLIGIAYEGKAIAGVINQPYYNYEAGPDAVLGRTIWGVLGLGAFGFQLKEVPAGKHIITTTRSHSNKLVTDCVAAMNPDAVLRVGGAGNKIIQLIEGKASAYVFASPGCKKWDTCAPEVILHAVGGKLTDIHGNVLQYHKDVKHMNSAGVLATLRNYDYYASRVPESIKNALVPAHHHHHH”, which “soluble on expression in E. coli” value is on record?
Its value is “soluble”.

With “MTVTDRIFQNVAELSVPNFFITVEFSVMGNEMPEHIESFVLEKYQAILHGANGRKFVYTEGGWRLFFTFFPTDKVVDERYALKNKVQMKFHK” as the sequence, how does the “soluble on expression in E. coli” value read?
Its value is “not soluble”.

For “MTWNTCSLCVTSELMNTLDEAKIPLQKAVNYHEQSQNRQFRITLITKCLENQENPEKSEVSVNFFVDLKELVPSCAYFEKFDGLSYVEFSTNCKSTWISAPESVAAPHEDCSHRFQSPIISRNFHAFLDSVCPSLYGIRPTPLTLSSIVPVLDMLSHFHSEPLLTNCERFLMSTNIGHLDGNHLIRLLDKGLCVSLDHRILGRILCICLMSPQAKMSDSSQELAGTIGSVFAQAFVALVYQKLMVKCEENSNLLIEKSKKSIFDGIFMENLKKKLIFHNFYEYSNISKSFRHIKPLEQESSLWPMAMRNLLIPGALGANSSSSKGSSEEKIGNKKRKRQECDHNEESFECILCFDQRCGKCKGEAAFCYKALDNFLYEIRLQLYPHTYRPHLDRDLLREERLSDYILRNQFQPLPDAN”, which “soluble on expression in E. coli” value is on record?
Its value is “not soluble”.

For “MTYPDLSRGAGPVAAGPQPTGLADLLERVLDKGLVIAGDIRVNLLDIELLTIKLRLVIASMETAQQAGIDWWTRDPWLKASESELLEENRRLREQLAQADTNGRKRIEGKESHD”, which “soluble on expression in E. coli” value is on record?
Its value is “not soluble”.

Which “soluble on expression in E. coli” value does the source give for “MTYPIPKPREKSRWPNLSQGSLPLALARYLPHKRLKVVLTQDAEQALRLQTAWRFFRPHDTAVFLPDWETLPYERFSPHQDLVSERLSALWQIKSGAADVLFVPVATAMQKLPPVPFLAGRTFWLKTGQTLDIGRLKSDLVDAGYNHVSHVVAAGEFAVRGGIVDLFPMGSEMPYRIDLFDDEIDSIKTFDTETQRTISPVSEIRLLPAHEFPTDSEAQKIFRSRFREEVDGNPNDAAVYKAVSNGHFGAGVEYYLPLFFENELETLFDYIGEDALFVSLDDVHAEANRFWSDVKSRYAMAQGDETYPPLLPQYLYLSADVFAGRLKNYGQVLPDVSGKEYTLPDLAVNRQADEPLQALKDFQTAFDGRILLCAESLGRRETMLGFLQQNGLKAKPVSDWQGFLSAHEPLMITVAPLAYGFKLGGLQSPNQQQPTPSPVGEGWGEGKAVAAQTEFSAAAINPLPSPLPQEREQSAAAVSDSLKAAAVSTESSLPLGTSNLHGQIRQQPAPSPVGEGWGEGKAVAAQTEFPASATNPLPSPLPQEREQSAAAVSDDLKTKSSLHPVANNLHGQIRQQPTPSPVGEGWGEGKAVAAQTEFSAAATNPLPSPLPQEREQSAAVVSDSLKAAAVSTESSLPPGKSNLHGQIQQQPAPSPVGEGWGEGKAVAAQSAIAVITESDLYQYVARSRIHNRRKKHAAVSDGLLRDLAEINIGDPVVHEEHGIGRYMGLVTMDLGGETNEMMLLEYAGEAQLYVPVSQLHLISRYSGQAHENIALHKLGSGAWNKAKRKAAEKARDTAAELLNLYAQRAAQSGHKFEINELDYQAFADGFGYEETEDQAAAIAAVIKDLTQAKPMDRLVCGDVGFGKTEVALRAAFVAVMGGKQVAVLAPTTLLVEQHAQNFADRFADFPVKVASLSRFNNSKATKAALEGMADGTVDIVIGTHKLVQDDIKFKNLGLVIIDEEHRFGVRQKEQLKRLRANVDILTMTATPIPRTLSMALEGLRDFSLITTAPSRRLAVKTFVKPFSEGSVREAVLRELKRGGQVFFLHNEVDTIENMRERLETLLPEARIGVAHGQLRERELEQVMRDFLQQRFNVLLCSTIIETGIDIPNANTIIINRADKFGLAQLHQLRGRVGRSHHQAYAYLLTPEYITKDAEKRLDAIAAADELGAGFTLAMQDLEIRGAGEILGEGQSGEMIQVGFTLYTEMLKQAVRDLKKGRQPDLDAPLGITTEIKLHSPALLPEDYCPDIHERLVLYKRLAVCETVQQINTIHEELVDRFGLPEQPVKTLIESHHLRLMAKELGIDAIDAAGEAVTVTFGKNNNVDPTEIILLIQNDKKYRLAGADKLRFTAEMENIEVRINTVKNVLKTLQNRCLPK” here?
Its value is “not soluble”.

For “MTYRVLDPNAQEGSPTEVLVRMYSHPQLRRLYADTEACYTTALADSITGEMRAAFERLRVSDPQMAIPRYVAFHVSGLQQSVVAVPDLVSVSIDKYIRPDYPVYLQFFSEYARQTMSPEYVVRDAVLGWICSERPLPRETVLTLRFQLEYWGDIYRLMKQVFPQASDEWLFGFTSDQLLWMKQNRKILLDNALKRGEMESSQPTVTDRYFKELPPDQLLPPEAPRLIGHWLGTNL”, which “soluble on expression in E. coli” value is on record?
The value was “not soluble”.

For “MTYTTAKAAEKIGISAHTLRFYDKEGLLPNIGRDEYGNRCFTDNDLQWLGLLQCLKNTGMSLKDIKRFAECTVIGDDTIEERLSLFENQIENVKCQIAELKRYLDLLEYKLAFYQKAKALGSVKAVNLPQIPETA”, which “soluble on expression in E. coli” value is on record?
The value was “soluble”.
